# Source: patent publication US11643691B2, “Predictive biomarkers for cancer immunotherapy and methods of using same” (Duke University, priority 2018, dated 2023)
# Key:
# DCs [1] = experiment: Oxygen consumption rate (OCR) / OXPHOS, Seahorse XFe24 flux analysis of murine DCs; type: cell-based; details: DCs pre-treated
# Procedure: Dendritic Cell Conditioning: DCs were treated with Wnt3a (100 ng/mL), Wnt5a (200 ng/mL), LPS (1 μg/mL), 1-MT (1 mM), 2DG (1 mM), or ETO (100 μM), 2-DG(2-deoxy-d-glucose, 1 mM), Oligomycin (1 μM), succinylacetone (250 μM), or vehicle control either for 24 or 48 hrs prior to their use in both in vitro and in vivo experiments.
# Cellular Energy Metabolism Analysis: DC energy metabolism was measured using the XFe24 extracellular flux analyzer (Seahorse Bioscience), with the glycolysis stress test kit and the mitochondrial stress test kit as previously described (Everts et al., 2014, Zhao and Klimecki, 2015). For experiments involving LPS injection, DCs were plated in XFe24 plates (200,000/well in 500p1) and treated with LPS for 48 hours prior to XF analysis. DCs were washed and analyzed in XF media (RPMI without sodium bicarbonate, 10 mM glucose, 1% FBS, 2 mM L-glutamine). ECAR was analyzed in real-time with or without LPS stimulation. For experiments involving BrafV600EPten−/− cell line-derived conditioned media (CM), collected CM was concentrated and desalted with an Amicon Ultra 30K filter according to manufacturer's recommendations (Milipore). Final concentrate was further washed with XF media 3 times, added to DCs immediately prior to OCR analysis. For standard ECAR analysis, XF media (without glucose) was used to wash cells prior to the assay. […]
# Akt = Akt Thr-308 phosphorylation immunoblot of DCs; type: cell-based, Murine; details: Wnt5a 200 ng/mL, 48 hrs
# Description: Data is representative of 3 independent experiments. […] Data is representative of 3 independent experiments. […] Antibodies, Immunoprecipitation, and Immunoblot Analysis: Primary antibodies including CPT1A (Cell signaling), PPAR-γ (Santa Cruz Biotechnology), β-catenin, β-actin (Millipore), p-AMPK(T172)/AMPK (Cell signaling), p-AKT(T308)/Akt (Cell Signaling) were used at 1:1000. Secondary antibodies including goat anti-rabbit IgG-HRP (Millipore) and goat anti-mouse IgG-HRP (Millipore) were used at 1:5000. Cells were lysed in Laemmli sample buffer after treatment and subjected to SDS-polyacrylamide gel electrophoresis and immunoblot analysis. For immunoprecipitation, cells were lysed in radio immunoprecipitation assay (RIPA) buffer [10 mM sodium phosphate (pH 8.0), 150 mM NaCl, 1% Triton X-100, 1% sodium deoxycholate, and 0.1% SDS in the presence of 1 mM DTT, 1 mM phenylmethylsulfonylfluoride, and a protease inhibitor cocktail (Sigma)], precleared with protein A beads, and then incubated with 1 μg of antibody against β-catenin or isotype control IgG with protein A-agarose beads on a rotator overnight at 4° C. After 3 washes with RIPA buffer, immunoprecipitated complexes were eluted in sample buffer by boiling and subjected to immunoblot analysis. Immunoblots were visualized by chemiluminescence substrate (ThermoFisher) and imaged by a ChemiDoc XRSplus system (BioRad).
# DC IDO = experiment: IDO enzymatic assay (kynurenine in conditioned media by HPLC); type: cell-based, Murine; details: purified DC cultures or tumor-infiltrating DCs
# Procedure: (§1) IDO enzymatic assay and Hemin assay: DC IDO enzyme activity was measured by the conversion of L-tryptophan to L-kynurenine in conditioned media by HPLC (Pallotta et al., 2011). Intracellular hemin was measured using a colorimetric assay kit (BioVision).
# DCs [2] = experiment: PpIX flow cytometry analysis and hemin colorimetric assay; type: cell-based, Murine
# Procedure: as §1
# PpIX Analysis: DCs were terminally incubated in the presence of 1 mM δ-aminolevulinic acid (ALA) for 4 hrs. Intracellular PpIX was analyzed by flow cytometry as previously described (Hryhorenko et al., 1998).
# DCs [3] = experiment: BODIPY and fatty acid uptake assay; type: cell-based, Murine; details: TF2-C12 uptake, BODIPY
# Procedure: BODIPY and Fatty Acid Uptake Assay: DCs were stained in 0.5 μg/ml BODIPY 493/503 in PBS for 15 min to determine neutral lipid content (Herber et al., 2010). Fatty acid uptake measurement in DCs were performed using a dodecanoic acid fluorescent TF2-C12 fatty acid (Sigma) according to the manufacturer's protocol.
# [4] = tested on: CD8+ T cell proliferation; experiment: T cell proliferation assay (CellTrace Violet dilution, OT-1 splenocytes with conditioned DCs); type: cell-based, mice; details: DCs pre-treated, LPS stimulated
# Procedure: T Cell Proliferation Assay: Splenocytes of OT-1 mice (H-2b) were isolated and stained with CellTrace Violet (ThermoFisher). Preconditioned DCs were loaded with ovalbumin peptide SIINFEKL, and co-cultured at a DC:splenocyte ratio of 40,000:120,000 cells for 72 hrs. CD8+ T cell proliferation was measured by the dilution of Cell Trace Violet dye by flow cytometry.
molecule,measurement,setting,value
"Wnt5a: Recombinant Human/Mouse Wnt5a Protein (R&D Systems) (protein, UniProt P41221 62-380, looked up) Protein Wnt-5a: IIGAQPLCSQLAGLSQGQKKLCHLYQDHMQYIGEGAKTGIKECQYQFRHRRWNCSTVDNTSVFGRVMQIGSRETAFTYAVSAAGVVNAMSRACREGELSTCGCSRAARPKDLPRDWLWGGCGDNIDYGYRFAKEFVDARERERIHAKGSYESARILMNLHNNEAGRRTVYNLADVACKCHGVSGSCSLKTCWLQLADFRKVGDALKEKYDSAAAMRLNSRGKLVQVNSRFNSPTTQDLVYIDPSPDYCVRNESTGSLGTQGRLCNKTSEGMDGCELMCCGRGYDQFKTVQTERCHCKFHWCCYVKCKKCTEIVDQFVCK",OXPHOS in DCs (OCR),DCs [1],effectively promoted OXPHOS in DCs
same,DC Akt Thr-308 phosphorylation,Akt,no impact
same,DC IDO enzymatic activity (kynurenine),DC IDO,promoted DC IDO enzymatic activity
same,DC concentrations of PpIX and hemin,DCs [2],"enhanced DC concentrations of the PpIX prosthetic group and its downstream degradation product, hemin"
same,DC fatty acid uptake and lipid stores,DCs [3],enhance DC fatty acid uptake and lipid stores
same,LPS-induced DC-mediated antigen-specific T cell proliferation,[4],suppresses LPS-induced DC-mediated antigen-specific T cell proliferation
